Measured values: patent publication US20240270846A1 (published 2024)

What was measured:
[1] = biological target: T1, CD3 epsilon homodimer protein (UniProt P07766 23-126); assay: SPR Biacore T200, antibody over immobilised CD3e homodimer;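 also: CD3 epsilon homodimer amine-coupled on a CM4 chip, run at 25 °C in HBS-EP+, Z = bound amount of each single-residue H chain variant over that of the parent antibody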
T1 construct: also called CD3 (CD3 epsilon)
T1 sequence (P07766 23-126): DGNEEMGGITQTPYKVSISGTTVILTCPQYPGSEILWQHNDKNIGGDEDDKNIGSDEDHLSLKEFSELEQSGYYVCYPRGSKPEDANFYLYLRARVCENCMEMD

[2] = biological target: T2, CD3 epsilon homodimer protein (UniProt P07766 23-126); assay: SPR Biacore T200, CD3 epsilon homodimer immobilized; vs unaltered GLS3000;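 also: antibody variants flowed as analyte over CD3 epsilon homodimer amine-coupled to a CM4 chip, at 25 °C in HBS-EP+ running buffer, fitted with Biacore T200 Evaluation Software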
T2 construct: construct not described; homodimer as printed; also called CD3 (CD3 epsilon)
T2 sequence (P07766 23-126): as above

| ratio of amounts bound (Z=Y/X vs CE115HA000) [1] | KD ratio to GLS3000 (Affinity up) [2] | Binder |
| --- | --- | --- |
| 0.17 |  | CE115HA000 H35A one-arm antibody (antibody, human IgG1, kappa, L234A L235A, N297A, name in Kabat numbering, one-arm antibody) heavy: QVQLVESGGGVVQPGRSLRLSCAASGFTFSNAWMAWVRQAPGKGLEWVAQIKAKSNNYATYYAESVKGRFTISRDDSKNSLYLQMNSLKTEDTAVYYCRYVHYGAYYGVDAWGQGTTVTVSSASTKGPSVFPLAPSSKSTSGGTAALGCLVKDYFPEPVTVSWNSGALTSGVHTFPAVLQSSGLYSLSSVVTVPSSSLGTQTYICNVNHKPSNTKVDKKVEPKSCDKTHTCPPCPAPEAAGGPSVFLFPPKPKDTLMISRTPEVTCVVVDVSHEDPEVKFNWYVDGVEVHNAKTKPREEQYASTYRVVSVLTVLHQDWLNGKEYKCKVSNKALPAPIEKTISKAKGQPREPQVYTLPPSRCELTKNQVSLSCAVKGFYPSDIAVEWESNGQPENNYKTTPPVLDSDGSFFLVSKLTVDKSRWQQGNVFSCSVMHEALHNHYTQKSLSLSPDYKDDDDK EPKSSDKTHTCPPCPAPELLGGPSVFLFPPKPKDTLMISRTPEVTCVVVDVSHEDPEVKFNWYVDGVEVHNAKTKPREEQYNSTYRVVSVLTVLHQDWLNGKEYKCKVSNKALPAPIEKTISKAKGQPREPQVCTLPPSRDELTKNQVSLWCLVKGFYPSDIAVEWESNGQPENNYKTTPPVLDSDGSFFLYSKLTVDKSRWQQGNVFSCSVMHEALHNRYTQKSLSLSP light: DIVMTQSPLSLPVTPGEPASISCRSSQSLVHSNRNTYLHWYQQKPGQAPRLLIYKVSNRFSGVPDRFSGSGSGTDFTLKISRVEAEDVGVYYCGQGTQVPYTFGQGTKLEIKRTVAAPSVFIFPPSDEQLKSGTASVVCLLNNFYPREAKVQWKVDNALQSGNSQESVTEQDSKDSTYSLSSTLTLSKADYEKHKVYACEVTHQGLSSPVTKSFNRGEC |
|  | 3.04 | GLS3000 V27cS (Kabat) L chain altered form, one-arm antibody with CE115HA000 (antibody, human IgG1, kappa, L234A L235A, N297A, name in Kabat numbering, one-arm antibody) heavy: QVQLVESGGGVVQPGRSLRLSCAASGFTFSNAWMHWVRQAPGKGLEWVAQIKAKSNNYATYYAESVKGRFTISRDDSKNSLYLQMNSLKTEDTAVYYCRYVHYGAYYGVDAWGQGTTVTVSSASTKGPSVFPLAPSSKSTSGGTAALGCLVKDYFPEPVTVSWNSGALTSGVHTFPAVLQSSGLYSLSSVVTVPSSSLGTQTYICNVNHKPSNTKVDKKVEPKSCDKTHTCPPCPAPEAAGGPSVFLFPPKPKDTLMISRTPEVTCVVVDVSHEDPEVKFNWYVDGVEVHNAKTKPREEQYASTYRVVSVLTVLHQDWLNGKEYKCKVSNKALPAPIEKTISKAKGQPREPQVYTLPPSRCELTKNQVSLSCAVKGFYPSDIAVEWESNGQPENNYKTTPPVLDSDGSFFLVSKLTVDKSRWQQGNVFSCSVMHEALHNHYTQKSLSLSPDYKDDDDK EPKSSDKTHTCPPCPAPELLGGPSVFLFPPKPKDTLMISRTPEVTCVVVDVSHEDPEVKFNWYVDGVEVHNAKTKPREEQYNSTYRVVSVLTVLHQDWLNGKEYKCKVSNKALPAPIEKTISKAKGQPREPQVCTLPPSRDELTKNQVSLWCLVKGFYPSDIAVEWESNGQPENNYKTTPPVLDSDGSFFLYSKLTVDKSRWQQGNVFSCSVMHEALHNRYTQKSLSLSP light: DIVMTQSPLSLPVTPGEPASISCRSSQSLSHSNRNTYLHWYQQKPGQAPRLLIYKVSNRFSGVPDRFSGSGSGTDFTLKISRVEAEDVGVYYCGQGTQVPYTFGQGTKLEIKRTVAAPSVFIFPPSDEQLKSGTASVVCLLNNFYPREAKVQWKVDNALQSGNSQESVTEQDSKDSTYSLSSTLTLSKADYEKHKVYACEVTHQGLSSPVTKSFNRGEC |
|  | 1.25 | GLS3000 V27cY (Kabat) L chain altered form, one-arm antibody with CE115HA000 (antibody, human IgG1, kappa, L234A L235A, N297A, name in Kabat numbering, one-arm antibody) heavy: QVQLVESGGGVVQPGRSLRLSCAASGFTFSNAWMHWVRQAPGKGLEWVAQIKAKSNNYATYYAESVKGRFTISRDDSKNSLYLQMNSLKTEDTAVYYCRYVHYGAYYGVDAWGQGTTVTVSSASTKGPSVFPLAPSSKSTSGGTAALGCLVKDYFPEPVTVSWNSGALTSGVHTFPAVLQSSGLYSLSSVVTVPSSSLGTQTYICNVNHKPSNTKVDKKVEPKSCDKTHTCPPCPAPEAAGGPSVFLFPPKPKDTLMISRTPEVTCVVVDVSHEDPEVKFNWYVDGVEVHNAKTKPREEQYASTYRVVSVLTVLHQDWLNGKEYKCKVSNKALPAPIEKTISKAKGQPREPQVYTLPPSRCELTKNQVSLSCAVKGFYPSDIAVEWESNGQPENNYKTTPPVLDSDGSFFLVSKLTVDKSRWQQGNVFSCSVMHEALHNHYTQKSLSLSPDYKDDDDK EPKSSDKTHTCPPCPAPELLGGPSVFLFPPKPKDTLMISRTPEVTCVVVDVSHEDPEVKFNWYVDGVEVHNAKTKPREEQYNSTYRVVSVLTVLHQDWLNGKEYKCKVSNKALPAPIEKTISKAKGQPREPQVCTLPPSRDELTKNQVSLWCLVKGFYPSDIAVEWESNGQPENNYKTTPPVLDSDGSFFLYSKLTVDKSRWQQGNVFSCSVMHEALHNRYTQKSLSLSP light: DIVMTQSPLSLPVTPGEPASISCRSSQSLYHSNRNTYLHWYQQKPGQAPRLLIYKVSNRFSGVPDRFSGSGSGTDFTLKISRVEAEDVGVYYCGQGTQVPYTFGQGTKLEIKRTVAAPSVFIFPPSDEQLKSGTASVVCLLNNFYPREAKVQWKVDNALQSGNSQESVTEQDSKDSTYSLSSTLTLSKADYEKHKVYACEVTHQGLSSPVTKSFNRGEC |
| 0.33 |  | CE115HA000 A32Y one-arm antibody (antibody, human IgG1, kappa, L234A L235A, N297A, name in Kabat numbering, one-arm antibody) heavy: QVQLVESGGGVVQPGRSLRLSCAASGFTFSNYWMHWVRQAPGKGLEWVAQIKAKSNNYATYYAESVKGRFTISRDDSKNSLYLQMNSLKTEDTAVYYCRYVHYGAYYGVDAWGQGTTVTVSSASTKGPSVFPLAPSSKSTSGGTAALGCLVKDYFPEPVTVSWNSGALTSGVHTFPAVLQSSGLYSLSSVVTVPSSSLGTQTYICNVNHKPSNTKVDKKVEPKSCDKTHTCPPCPAPEAAGGPSVFLFPPKPKDTLMISRTPEVTCVVVDVSHEDPEVKFNWYVDGVEVHNAKTKPREEQYASTYRVVSVLTVLHQDWLNGKEYKCKVSNKALPAPIEKTISKAKGQPREPQVYTLPPSRCELTKNQVSLSCAVKGFYPSDIAVEWESNGQPENNYKTTPPVLDSDGSFFLVSKLTVDKSRWQQGNVFSCSVMHEALHNHYTQKSLSLSPDYKDDDDK EPKSSDKTHTCPPCPAPELLGGPSVFLFPPKPKDTLMISRTPEVTCVVVDVSHEDPEVKFNWYVDGVEVHNAKTKPREEQYNSTYRVVSVLTVLHQDWLNGKEYKCKVSNKALPAPIEKTISKAKGQPREPQVCTLPPSRDELTKNQVSLWCLVKGFYPSDIAVEWESNGQPENNYKTTPPVLDSDGSFFLYSKLTVDKSRWQQGNVFSCSVMHEALHNRYTQKSLSLSP light: DIVMTQSPLSLPVTPGEPASISCRSSQSLVHSNRNTYLHWYQQKPGQAPRLLIYKVSNRFSGVPDRFSGSGSGTDFTLKISRVEAEDVGVYYCGQGTQVPYTFGQGTKLEIKRTVAAPSVFIFPPSDEQLKSGTASVVCLLNNFYPREAKVQWKVDNALQSGNSQESVTEQDSKDSTYSLSSTLTLSKADYEKHKVYACEVTHQGLSSPVTKSFNRGEC |
| 1.34 |  | CE115HA000 A52aD one-arm antibody (antibody, human IgG1, kappa, L234A L235A, N297A, name in Kabat numbering, one-arm antibody) heavy: QVQLVESGGGVVQPGRSLRLSCAASGFTFSNAWMHWVRQAPGKGLEWVAQIKDKSNNYATYYAESVKGRFTISRDDSKNSLYLQMNSLKTEDTAVYYCRYVHYGAYYGVDAWGQGTTVTVSSASTKGPSVFPLAPSSKSTSGGTAALGCLVKDYFPEPVTVSWNSGALTSGVHTFPAVLQSSGLYSLSSVVTVPSSSLGTQTYICNVNHKPSNTKVDKKVEPKSCDKTHTCPPCPAPEAAGGPSVFLFPPKPKDTLMISRTPEVTCVVVDVSHEDPEVKFNWYVDGVEVHNAKTKPREEQYASTYRVVSVLTVLHQDWLNGKEYKCKVSNKALPAPIEKTISKAKGQPREPQVYTLPPSRCELTKNQVSLSCAVKGFYPSDIAVEWESNGQPENNYKTTPPVLDSDGSFFLVSKLTVDKSRWQQGNVFSCSVMHEALHNHYTQKSLSLSPDYKDDDDK EPKSSDKTHTCPPCPAPELLGGPSVFLFPPKPKDTLMISRTPEVTCVVVDVSHEDPEVKFNWYVDGVEVHNAKTKPREEQYNSTYRVVSVLTVLHQDWLNGKEYKCKVSNKALPAPIEKTISKAKGQPREPQVCTLPPSRDELTKNQVSLWCLVKGFYPSDIAVEWESNGQPENNYKTTPPVLDSDGSFFLYSKLTVDKSRWQQGNVFSCSVMHEALHNRYTQKSLSLSP light: DIVMTQSPLSLPVTPGEPASISCRSSQSLVHSNRNTYLHWYQQKPGQAPRLLIYKVSNRFSGVPDRFSGSGSGTDFTLKISRVEAEDVGVYYCGQGTQVPYTFGQGTKLEIKRTVAAPSVFIFPPSDEQLKSGTASVVCLLNNFYPREAKVQWKVDNALQSGNSQESVTEQDSKDSTYSLSSTLTLSKADYEKHKVYACEVTHQGLSSPVTKSFNRGEC |
|  | 66.8 | GLS3000 Y32A (Kabat) L chain altered form, one-arm antibody with CE115HA000 (antibody, human IgG1, kappa, L234A L235A, N297A, name in Kabat numbering, one-arm antibody) heavy: QVQLVESGGGVVQPGRSLRLSCAASGFTFSNAWMHWVRQAPGKGLEWVAQIKAKSNNYATYYAESVKGRFTISRDDSKNSLYLQMNSLKTEDTAVYYCRYVHYGAYYGVDAWGQGTTVTVSSASTKGPSVFPLAPSSKSTSGGTAALGCLVKDYFPEPVTVSWNSGALTSGVHTFPAVLQSSGLYSLSSVVTVPSSSLGTQTYICNVNHKPSNTKVDKKVEPKSCDKTHTCPPCPAPEAAGGPSVFLFPPKPKDTLMISRTPEVTCVVVDVSHEDPEVKFNWYVDGVEVHNAKTKPREEQYASTYRVVSVLTVLHQDWLNGKEYKCKVSNKALPAPIEKTISKAKGQPREPQVYTLPPSRCELTKNQVSLSCAVKGFYPSDIAVEWESNGQPENNYKTTPPVLDSDGSFFLVSKLTVDKSRWQQGNVFSCSVMHEALHNHYTQKSLSLSPDYKDDDDK EPKSSDKTHTCPPCPAPELLGGPSVFLFPPKPKDTLMISRTPEVTCVVVDVSHEDPEVKFNWYVDGVEVHNAKTKPREEQYNSTYRVVSVLTVLHQDWLNGKEYKCKVSNKALPAPIEKTISKAKGQPREPQVCTLPPSRDELTKNQVSLWCLVKGFYPSDIAVEWESNGQPENNYKTTPPVLDSDGSFFLYSKLTVDKSRWQQGNVFSCSVMHEALHNRYTQKSLSLSP light: DIVMTQSPLSLPVTPGEPASISCRSSQSLVHSNRNTALHWYQQKPGQAPRLLIYKVSNRFSGVPDRFSGSGSGTDFTLKISRVEAEDVGVYYCGQGTQVPYTFGQGTKLEIKRTVAAPSVFIFPPSDEQLKSGTASVVCLLNNFYPREAKVQWKVDNALQSGNSQESVTEQDSKDSTYSLSSTLTLSKADYEKHKVYACEVTHQGLSSPVTKSFNRGEC |
